Reference: patent publication US20140219956A1

Target: TROP-2 (EGP-1, epithelial glycoprotein-1) (human) (UniProt P09758)
Assay: cell-based or functional assay

TROP-2 (EGP-1, epithelial glycoprotein-1) (human), sequence (P09758 27-323): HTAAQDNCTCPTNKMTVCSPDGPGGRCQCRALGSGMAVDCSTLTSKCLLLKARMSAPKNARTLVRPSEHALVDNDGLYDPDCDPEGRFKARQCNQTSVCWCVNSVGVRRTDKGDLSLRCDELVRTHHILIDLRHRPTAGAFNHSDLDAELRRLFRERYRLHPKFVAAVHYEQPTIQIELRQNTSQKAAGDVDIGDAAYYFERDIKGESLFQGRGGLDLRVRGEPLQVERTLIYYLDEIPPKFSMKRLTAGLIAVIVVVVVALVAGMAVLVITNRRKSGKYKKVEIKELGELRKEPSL

B1: hRS7 (humanized anti-TROP-2 / anti-EGP-1 antibody), unconjugated IgG (antibody, INN chains, looked up, V domains shown)
VH: QVQLQQSGSELKKPGASVKVSCKASGYTFTNYGMNWVKQAPGQGLKWMGWINTYTGEPTYTDDFKGRFAFSLDTSVSTAYLQISSLKADDTAVYFCARGGFGSSYWYFDVWGQGSLVTVSS
VL: DIQLTQSPSSLSASVGDRVSITCKASQDVSIAVAWYQQKPGKAPKLLIYSASYRYTGVPDRFSGSGSGTDFTLTISSLQPEDFAVYYCQQHYITPLTFGAGTKVEIK
An ADCC, specific lysis of BxPC-3 target cells (PBMC effectors, effector to target ratio 100:1, 33.3 nM) of 8.5% was found for B1 in this work.
